Test results reported in US9211312 (VOLUTION IMMUNO PHARMACEUTICALS, dated 2015).

Tests used:
[1] = molecular target: human complement C5 (in human serum) (human, UniProt P01031 19-1676); assay: cell-based or functional assay
[2] = molecular target: rat complement C5 (in rat serum) (rat, UniProt P08650 19-1681); assay: cell-based or functional assay
[3] = molecular target: mouse complement C5 (in mouse serum) (mouse, UniProt P06684 19-1680); assay: cell-based or functional assay
[4] = molecular target: T1, complement C5 (Homo sapiens (Human), UniProt P01031 19-673; P01031 678-1676, The beta and alpha chains of native C5 are linked by a disulfide bond. The native protein is glycosylated.); assay: direct binding to C5 (FIG. 4C); method not described
T1 construct: also called complement protein C5
T1 sequence (P01031 19-673 limits assumed, form in doubt, chain 1 of 2): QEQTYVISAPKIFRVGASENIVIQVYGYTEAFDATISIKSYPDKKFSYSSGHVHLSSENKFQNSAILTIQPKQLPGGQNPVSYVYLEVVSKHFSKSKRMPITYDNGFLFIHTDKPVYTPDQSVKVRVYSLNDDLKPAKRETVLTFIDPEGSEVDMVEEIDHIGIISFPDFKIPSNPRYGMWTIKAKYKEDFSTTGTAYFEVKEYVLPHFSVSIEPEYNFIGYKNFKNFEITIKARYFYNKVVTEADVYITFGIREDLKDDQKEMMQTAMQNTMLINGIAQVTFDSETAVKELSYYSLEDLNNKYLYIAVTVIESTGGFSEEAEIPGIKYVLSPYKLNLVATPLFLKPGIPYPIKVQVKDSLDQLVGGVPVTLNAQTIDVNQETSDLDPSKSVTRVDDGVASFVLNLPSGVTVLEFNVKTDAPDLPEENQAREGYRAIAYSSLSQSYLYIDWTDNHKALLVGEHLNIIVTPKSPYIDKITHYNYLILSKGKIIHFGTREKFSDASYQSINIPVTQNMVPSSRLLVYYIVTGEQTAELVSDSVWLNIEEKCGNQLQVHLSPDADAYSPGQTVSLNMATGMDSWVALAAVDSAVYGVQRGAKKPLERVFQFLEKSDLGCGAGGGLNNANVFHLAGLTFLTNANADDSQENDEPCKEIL
T1 sequence (P01031 678-1676 limits assumed, form in doubt, chain 2 of 2): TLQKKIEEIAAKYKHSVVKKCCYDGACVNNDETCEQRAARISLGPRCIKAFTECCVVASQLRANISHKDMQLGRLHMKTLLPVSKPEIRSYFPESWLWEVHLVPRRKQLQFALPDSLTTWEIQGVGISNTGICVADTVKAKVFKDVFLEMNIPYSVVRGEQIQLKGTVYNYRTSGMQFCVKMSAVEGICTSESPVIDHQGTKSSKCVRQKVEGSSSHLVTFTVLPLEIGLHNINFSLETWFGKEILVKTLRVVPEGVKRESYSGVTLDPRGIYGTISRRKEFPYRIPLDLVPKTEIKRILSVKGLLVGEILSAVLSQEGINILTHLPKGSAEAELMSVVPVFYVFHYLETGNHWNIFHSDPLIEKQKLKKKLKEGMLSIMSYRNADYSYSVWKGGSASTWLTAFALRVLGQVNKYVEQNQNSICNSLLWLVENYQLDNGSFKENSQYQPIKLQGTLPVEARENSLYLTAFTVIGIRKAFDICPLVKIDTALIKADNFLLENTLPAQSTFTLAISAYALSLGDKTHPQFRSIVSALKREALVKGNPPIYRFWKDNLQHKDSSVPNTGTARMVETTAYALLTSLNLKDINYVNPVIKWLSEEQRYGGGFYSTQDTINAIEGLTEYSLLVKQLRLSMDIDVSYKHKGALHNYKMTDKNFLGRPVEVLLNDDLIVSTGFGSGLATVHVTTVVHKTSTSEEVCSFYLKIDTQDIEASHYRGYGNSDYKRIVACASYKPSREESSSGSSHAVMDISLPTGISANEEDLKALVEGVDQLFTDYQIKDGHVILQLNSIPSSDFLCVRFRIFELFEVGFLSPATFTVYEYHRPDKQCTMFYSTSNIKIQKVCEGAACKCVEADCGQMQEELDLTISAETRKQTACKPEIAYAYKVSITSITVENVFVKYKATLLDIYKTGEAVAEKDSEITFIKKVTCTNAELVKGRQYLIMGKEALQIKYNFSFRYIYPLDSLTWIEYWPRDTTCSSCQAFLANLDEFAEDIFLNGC

rat complement C5 (in rat serum), sequence (P08650 19-1681 limits assumed): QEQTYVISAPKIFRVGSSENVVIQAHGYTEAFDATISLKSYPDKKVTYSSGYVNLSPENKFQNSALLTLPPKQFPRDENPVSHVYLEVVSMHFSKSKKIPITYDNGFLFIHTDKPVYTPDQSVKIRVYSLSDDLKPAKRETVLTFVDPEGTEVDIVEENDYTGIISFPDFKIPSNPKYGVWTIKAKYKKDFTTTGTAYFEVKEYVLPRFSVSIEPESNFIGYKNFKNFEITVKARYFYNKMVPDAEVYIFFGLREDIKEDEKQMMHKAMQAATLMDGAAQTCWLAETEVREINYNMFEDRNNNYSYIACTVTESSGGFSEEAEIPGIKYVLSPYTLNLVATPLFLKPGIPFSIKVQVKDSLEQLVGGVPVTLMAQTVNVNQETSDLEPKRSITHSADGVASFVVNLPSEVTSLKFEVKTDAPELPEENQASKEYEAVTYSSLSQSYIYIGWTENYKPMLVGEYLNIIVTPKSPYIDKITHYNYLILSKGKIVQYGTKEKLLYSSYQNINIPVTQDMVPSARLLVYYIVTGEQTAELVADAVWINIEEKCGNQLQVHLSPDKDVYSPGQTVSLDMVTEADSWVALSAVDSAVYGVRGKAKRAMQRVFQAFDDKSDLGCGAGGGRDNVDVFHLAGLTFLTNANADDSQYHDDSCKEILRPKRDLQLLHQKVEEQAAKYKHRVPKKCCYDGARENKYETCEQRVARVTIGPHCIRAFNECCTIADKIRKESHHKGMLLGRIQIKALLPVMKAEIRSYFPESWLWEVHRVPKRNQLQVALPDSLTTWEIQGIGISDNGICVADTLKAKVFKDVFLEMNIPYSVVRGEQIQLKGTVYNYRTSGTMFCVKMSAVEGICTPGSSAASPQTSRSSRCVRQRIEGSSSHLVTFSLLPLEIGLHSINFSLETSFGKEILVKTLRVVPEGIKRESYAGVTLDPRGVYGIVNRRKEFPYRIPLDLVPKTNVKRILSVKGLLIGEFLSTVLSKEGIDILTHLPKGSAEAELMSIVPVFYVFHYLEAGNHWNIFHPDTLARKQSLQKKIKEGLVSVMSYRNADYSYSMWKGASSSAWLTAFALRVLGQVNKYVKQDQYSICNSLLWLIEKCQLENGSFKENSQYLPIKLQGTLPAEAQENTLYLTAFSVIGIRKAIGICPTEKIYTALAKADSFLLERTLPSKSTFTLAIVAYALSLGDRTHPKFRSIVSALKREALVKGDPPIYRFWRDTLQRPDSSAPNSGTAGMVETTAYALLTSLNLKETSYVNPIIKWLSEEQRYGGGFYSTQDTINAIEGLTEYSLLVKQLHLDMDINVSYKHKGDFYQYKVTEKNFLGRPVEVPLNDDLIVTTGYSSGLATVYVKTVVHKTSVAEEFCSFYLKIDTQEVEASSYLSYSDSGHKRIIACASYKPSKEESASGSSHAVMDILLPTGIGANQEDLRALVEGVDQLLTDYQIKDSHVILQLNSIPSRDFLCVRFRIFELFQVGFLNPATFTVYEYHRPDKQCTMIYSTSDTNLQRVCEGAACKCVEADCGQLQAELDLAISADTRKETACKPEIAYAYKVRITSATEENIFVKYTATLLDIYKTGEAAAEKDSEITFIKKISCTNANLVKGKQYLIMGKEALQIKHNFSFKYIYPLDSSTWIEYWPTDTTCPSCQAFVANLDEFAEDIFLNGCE
mouse complement C5 (in mouse serum), sequence (P06684 19-1680 limits assumed): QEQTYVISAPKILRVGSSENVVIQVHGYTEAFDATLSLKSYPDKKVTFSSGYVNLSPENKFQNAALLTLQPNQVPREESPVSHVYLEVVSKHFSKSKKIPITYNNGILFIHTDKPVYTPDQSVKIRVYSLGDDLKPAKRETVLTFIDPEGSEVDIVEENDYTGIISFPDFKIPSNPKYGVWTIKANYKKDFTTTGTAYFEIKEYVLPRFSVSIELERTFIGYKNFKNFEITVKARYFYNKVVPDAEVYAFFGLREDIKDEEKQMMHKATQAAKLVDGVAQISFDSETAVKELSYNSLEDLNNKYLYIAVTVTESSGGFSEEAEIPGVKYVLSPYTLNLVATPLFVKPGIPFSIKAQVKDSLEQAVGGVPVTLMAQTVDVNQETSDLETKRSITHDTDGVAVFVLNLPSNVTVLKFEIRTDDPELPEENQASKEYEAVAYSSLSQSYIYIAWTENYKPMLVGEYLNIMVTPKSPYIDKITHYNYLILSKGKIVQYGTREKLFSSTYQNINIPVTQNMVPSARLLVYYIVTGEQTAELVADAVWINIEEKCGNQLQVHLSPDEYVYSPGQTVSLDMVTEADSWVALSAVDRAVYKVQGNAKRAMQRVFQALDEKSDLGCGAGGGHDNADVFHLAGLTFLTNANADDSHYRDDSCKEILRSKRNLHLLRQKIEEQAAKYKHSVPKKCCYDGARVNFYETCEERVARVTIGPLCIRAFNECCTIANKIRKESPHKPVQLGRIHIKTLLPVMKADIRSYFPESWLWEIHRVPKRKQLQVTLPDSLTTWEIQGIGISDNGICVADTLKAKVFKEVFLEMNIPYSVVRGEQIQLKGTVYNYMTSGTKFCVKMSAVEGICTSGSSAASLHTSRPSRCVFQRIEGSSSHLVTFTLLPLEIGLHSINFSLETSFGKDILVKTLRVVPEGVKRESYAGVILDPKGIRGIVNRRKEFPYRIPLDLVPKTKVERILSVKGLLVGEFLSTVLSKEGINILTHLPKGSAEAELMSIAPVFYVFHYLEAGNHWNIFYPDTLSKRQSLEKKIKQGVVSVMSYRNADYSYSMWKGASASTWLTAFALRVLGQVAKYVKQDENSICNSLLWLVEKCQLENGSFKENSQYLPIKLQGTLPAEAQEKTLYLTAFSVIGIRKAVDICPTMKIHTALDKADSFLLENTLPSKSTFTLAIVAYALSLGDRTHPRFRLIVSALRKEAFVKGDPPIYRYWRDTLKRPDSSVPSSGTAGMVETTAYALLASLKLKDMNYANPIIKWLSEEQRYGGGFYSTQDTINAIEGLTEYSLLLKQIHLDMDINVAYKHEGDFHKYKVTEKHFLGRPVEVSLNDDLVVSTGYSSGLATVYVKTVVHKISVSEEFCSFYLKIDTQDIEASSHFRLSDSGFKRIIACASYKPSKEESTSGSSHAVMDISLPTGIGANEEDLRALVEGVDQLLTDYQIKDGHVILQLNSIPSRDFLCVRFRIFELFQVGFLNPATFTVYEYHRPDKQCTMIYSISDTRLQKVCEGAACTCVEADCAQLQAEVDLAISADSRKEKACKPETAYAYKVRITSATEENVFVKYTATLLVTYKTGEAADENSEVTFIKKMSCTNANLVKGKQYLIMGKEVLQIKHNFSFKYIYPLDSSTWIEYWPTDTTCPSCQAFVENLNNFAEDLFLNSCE

B1: EV576 protein, native, purified from salivary gland extracts of the soft tick Ornithodoros moubata (other)
chain: DSESDCTGSEPVDAFQAFSEGKEAYVLVRSTDPKARDCLKGEPAGEKQDNTLPVMMTFKNGTDWASTDWTFTLDGAKVTATLGNLTQNREVVYDSQSHHCHVDKVEKEVPDYEMWMLDAGGLEVEVECCRQKLEELASGRNQMYPHLKDC
IC50, binding of C5 and prevention of its cleavage by C5 convertase in serum [1]: ~0.02 mg/mL
IC50, binding of C5 and prevention of its cleavage by C5 convertase in serum [2]: ~0.02 mg/mL
IC50, binding of C5 and prevention of its cleavage by C5 convertase in serum [3]: ~0.02 mg/mL
IC50 [4]: ~20 µg/mL
